# According to patent US20150344570A1 (published 2015):
# T1: FcγRIIb (human, UniProt P31994 43-217)
# T1 construct: extracellular domain; also called FcgRIIb; 2b
# T1 sequence (looked up): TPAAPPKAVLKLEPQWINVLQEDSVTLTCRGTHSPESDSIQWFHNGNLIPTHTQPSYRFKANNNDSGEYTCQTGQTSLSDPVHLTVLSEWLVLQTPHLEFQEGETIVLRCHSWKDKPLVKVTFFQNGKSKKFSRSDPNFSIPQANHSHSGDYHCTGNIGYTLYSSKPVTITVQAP
# T2: FcγRIIb extracellular domain with C-terminal His tag (human, UniProt P31994 43-217)
# T2 construct: extracellular domain; also called 2b; FcgRIIb
# T2 sequence (looked up): T1 sequence (looked up)
# B1: GpH7-A5/GpH7-B3 variant P331_15Y/GpL16-k0 (antibody, human IgG1, kappa)
# heavy 1: not shown
# heavy 2: not shown
# light: DIVMTQSPLSLPVTPGEPASISCQASESLVHSNRNTYLHWYLQKPGQSPQLLIYKVSNRFSGVPDRFSGSGSGTDFTLKISRVEAEDVGVYYCSQNTHVPPTFGQGTKVEIERTVAAPSVFIFPPSDEQLKSGTASVVCLLNNFYPREAKVQWKVDNALQSGNSQESVTEQDSKDSTYSLSSTLTLSKADYEKHKVYACEVTHQGLSSPVTKSFNRGEC
# notes: mutation in the GpH7-B3 chain only; also called He Ab
# B2: GpH7-A5/GpH7-B3 variant S337_07I/GpL16-k0 (antibody, human IgG1, kappa)
# heavy 1: not shown
# heavy 2: not shown
# light: B1 light
# notes: as for B1
# B3: GpH7-A5/GpH7-B3 variant L328_19Q/GpL16-k0 (antibody, human IgG1, kappa)
# heavy 1: not shown
# heavy 2: not shown
# light: B1 light
# notes: as for B1
# B4: GpH7-A5/GpH7-B3 variant P331_06M/GpL16-k0 (antibody, human IgG1, kappa)
# heavy 1: not shown
# heavy 2: not shown
# light: B1 light
# notes: as for B1
# B5: GpH7-A5/GpH7-B3 variant N325_07I/GpL16-k0 (antibody, human IgG1, kappa)
# heavy 1: not shown
# heavy 2: not shown
# light: B1 light
# notes: as for B1
# B6: GpH7-A5/GpH7-B3 variant P331_07I/GpL16-k0 (antibody, human IgG1, kappa)
# heavy 1: not shown
# heavy 2: not shown
# light: B1 light
# notes: as for B1
# B7: GpH7-A5/GpH7-B3 variant N325_20W/GpL16-k0 (antibody, human IgG1, kappa)
# heavy 1: not shown
# heavy 2: not shown
# light: B1 light
# notes: as for B1
# B8: GpH7-A5/GpH7-B3 variant L234_04F/GpL16-k0 (antibody, human IgG1, kappa)
# heavy 1: not shown
# heavy 2: not shown
# light: B1 light
# notes: also called He Ab
# B9: GpH7-A5/GpH7-B3 variant E333_04F/GpL16-k0 (antibody, human IgG1, kappa)
# heavy 1: not shown
# heavy 2: not shown
# light: B1 light
# notes: also called He Ab
# B10: GpH7-A5/GpH7-B3 variant A330_20W/GpL16-k0 (antibody, human IgG1, kappa)
# heavy 1: not shown
# heavy 2: not shown
# light: B1 light
# notes: also called He Ab
# B11: GpH7-A5/GpH7-B3 variant A330_03V/GpL16-k0 (antibody, human IgG1, kappa)
# heavy 1: not shown
# heavy 2: not shown
# light: B1 light
# notes: also called He Ab
# B12: GpH7-A5/GpH7-B3 variant A330_07I/GpL16-k0 (antibody, human IgG1, kappa)
# heavy 1: not shown
# heavy 2: not shown
# light: B1 light
# notes: also called He Ab
# B13: GpH7-A5/GpH7-B3 variant A330_15Y/GpL16-k0 (antibody, human IgG1, kappa)
# heavy 1: not shown
# heavy 2: not shown
# light: B1 light
# notes: also called He Ab
# B14: GpH7-A5/GpH7-B3 variant E333_02A/GpL16-k0 (antibody, human IgG1, kappa)
# heavy 1: not shown
# heavy 2: not shown
# light: B1 light
# notes: also called He Ab
# B15: GpH7-A5/GpH7-B3 variant D270_10E/GpL16-k0 (antibody, human IgG1, kappa)
# heavy 1: not shown
# heavy 2: not shown
# light: B1 light
# notes: also called He Ab
# B16: GpH7-A5/GpH7-B3 variant E333_03V/GpL16-k0 (antibody, human IgG1, kappa)
# heavy 1: not shown
# heavy 2: not shown
# light: B1 light
# notes: also called He Ab
# B17: GpH7-A5/GpH7-B3 variant A330_04F/GpL16-k0 (antibody, human IgG1, kappa)
# heavy 1: not shown
# heavy 2: not shown
# light: B1 light
# notes: also called He Ab
# B18: GpH7-A5/GpH7-B3 variant A330_08L/GpL16-k0 (antibody, human IgG1, kappa)
# heavy 1: not shown
# heavy 2: not shown
# light: B1 light
# notes: also called He Ab
# B19: GpH7-A5/GpH7-B3 variant A330_06M/GpL16-k0 (antibody, human IgG1, kappa)
# heavy 1: not shown
# heavy 2: not shown
# light: B1 light
# notes: also called He Ab
# B20: GpH7-A5/GpH7-B3 variant E333_13S/GpL16-k0 (antibody, human IgG1, kappa)
# heavy 1: not shown
# heavy 2: not shown
# light: B1 light
# notes: also called He Ab
# B21: GpH7-A5/GpH7-B3 variant A330_16H/GpL16-k0 (antibody, human IgG1, kappa)
# heavy 1: not shown
# heavy 2: not shown
# light: B1 light
# notes: also called He Ab
# B22: GpH7-A5/GpH7-B3 variant E333_09D/GpL16-k0 (antibody, human IgG1, kappa)
# heavy 1: not shown
# heavy 2: not shown
# light: B1 light
# notes: also called He Ab
# Molecular target: T3, FcγRIIIa (human, UniProt P08637 17-208)
# T3 construct: extracellular domain; also called FcgRIIIa; 3a
# Experiment: SPR (Biacore), relative binding
# T3 sequence (P08637 17-208): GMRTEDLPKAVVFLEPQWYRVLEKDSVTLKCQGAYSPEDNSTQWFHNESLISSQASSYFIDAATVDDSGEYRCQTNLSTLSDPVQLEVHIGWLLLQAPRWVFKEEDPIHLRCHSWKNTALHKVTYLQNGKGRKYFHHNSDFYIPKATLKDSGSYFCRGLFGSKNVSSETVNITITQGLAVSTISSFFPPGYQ
row,He/Con_3a,Binder
1,81.9 % of GpH7-A5/GpH7-B3/GpL16-k0,B1
2,94.8 % of GpH7-A5/GpH7-B3/GpL16-k0,B2
3,81.1 % of GpH7-A5/GpH7-B3/GpL16-k0,B3
4,74.8 % of GpH7-A5/GpH7-B3/GpL16-k0,B4
5,28.7 % of GpH7-A5/GpH7-B3/GpL16-k0,B5
6,66 % of GpH7-A5/GpH7-B3/GpL16-k0,B6
7,32.8 % of GpH7-A5/GpH7-B3/GpL16-k0,B7

# Molecular target: T1, FcγRIIb
# Experiment: SPR (Biacore), relative binding
row,He/Con_2b,Binder
1,114 % of GpH7-A5/GpH7-B3/GpL16-k0,B1
2,104 % of GpH7-A5/GpH7-B3/GpL16-k0,B2
3,105 % of GpH7-A5/GpH7-B3/GpL16-k0,B3
4,102 % of GpH7-A5/GpH7-B3/GpL16-k0,B4
5,171 % of GpH7-A5/GpH7-B3/GpL16-k0,B5
6,114 % of GpH7-A5/GpH7-B3/GpL16-k0,B6
7,169 % of GpH7-A5/GpH7-B3/GpL16-k0,B7

# Molecular target: T4, FcγRIIIa extracellular domain with C-terminal His tag (human, UniProt P08637 17-208)
# T4 construct: extracellular domain; also called 3a; FcgRIIIa
# Experiment: SPR, binding relative to GpH7-A5/GpH7-B3/GpL16-k0 = 100
# Description: (§1) The heterodimerized antibodies He Abs in which one of the H chains was introduced with an alteration were assayed for their binding activities to each activating FcγR and inhibitory FcγR according to the method described in Example 4. […] The activating FcγRs in FIGS. 26, 27, 28, and 29 are FcγRIa, FcγRIIa (R), FcγRIIa (H), and FcγRIIIa, respectively.
# (§2) Analysis of interaction between objective antibody and the FcγR was carried out using Biacore T100 (GE Healthcare). HBS-EP+ (GE Healthcare) was used as the running buffer, and the measurement temperature was set to 25° C. Chips produced by immobilizing the antigen peptide by the amine coupling method to a Series S Sencor Chip CM5 (GE Healthcare), or alternatively, chips produced by allowing preliminarily biotinylated antigen peptides to interact with and immobilize onto a Series S Sensor Chip SA (certified) (GE Healthcare) were used. Antibodies of interest were captured onto an antigen peptide-immobilized chip, and allowed to interact to each FcγR diluted with running buffer. To regenerate and repeatedly use the chip, the antibodies captured on the chip were washed off by reacting 10 mM glycine-HCl, pH 1.5.
# T4 sequence (P08637 17-208): as above
row,He/Con_3a,Binder
1,118 % of control,B8
2,101 % of control,B9
3,104 % of control,B10
4,101 % of control,B11
5,103 % of control,B12
6,125 % of control,B13
7,105 % of control,B14
8,123 % of control,B15
9,103 % of control,B16
10,147 % of control,B17
11,124 % of control,B18
12,142 % of control,B19
13,103 % of control,B20
14,104 % of control,B21
15,112 % of control,B22

# Molecular target: T2, FcγRIIb extracellular domain with …
# Experiment: as above
# Description: as §1, §2
row,He/Con_2b,Binder
1,99.8 % of control,B8
2,94.6 % of control,B9
3,76.1 % of control,B10
4,52.4 % of control,B11
5,67.1 % of control,B12
6,95 % of control,B13
7,83.8 % of control,B14
8,76.5 % of control,B15
9,93.2 % of control,B16
10,92.8 % of control,B17
11,70.5 % of control,B18
12,80.5 % of control,B19
13,81.8 % of control,B20
14,87.6 % of control,B21
15,94.3 % of control,B22
